Assay results reported in patent US20250304677A1 (VIB VZW, published 2025).
One block for each binder: values may come before it.

Assays:
[1] = molecular target: T1, human folate receptor alpha (hFRα), recombinant protein (human, UniProt P15328 25-233); test: BLI, periplasmic extract, FRα on AR2G biosensors
T1 construct: Bought recombinant proteins (His-tagged, or biotinylated via Avi-tag, e.g. AcroBiosystems FO1-H82E2, F01-H52H1); also called hFOLR1; huFOLR1
Procedure: (§1) After panning of core76/77 on human and mouse folate receptor alpha ^{∘}FRα), […] were randomly selected from the second and third rounds and analyzed by ELISA on both human and mouse FRα for the presence of FRα-specific VHHs in their periplasmic extracts ^{∘}PE). This led to the identification of 98 hits. For these 98 hits, the off-rate ^{∘}koff) in the PE was determined by biolayer interferometry ^{∘}BLI) on both mouse and human FRα that was directly immobilized onto AR2G biosensors. The off-rates were calculated using a 1:1 binding model. […] Abbreviations: SE: standard error.

[2] = molecular target: T2, mouse folate receptor alpha (mFRα), recombinant protein (mouse, UniProt P35846 25-232); test: BLI, periplasmic extract, FRα on AR2G biosensors
T2 construct: Bought recombinant proteins (e.g. biotinylated, Acro Biosystems FO1-M82E9); also called mFOLR1; Ms FOLR1
Procedure: as §1

[3] = molecular target: T2, mouse folate receptor alpha (mFRα), …; test: BLI tandem binning on mouse FRα; competitor (1st association) 2HFO19
Excerpt: (§2) VHHs that share high sequence identity in the CDR3 region, a VHH family, are derived from the same B-cell lineage and diverged from each other due to somatic hypermutation or affinity maturation. Typically, VHHs from the same family recognize the same epitope on the target, but may differ in other characteristics ^{∘}De Genst et al 2006 PNAS 103:4586-4591; De Gents et al 2005 J Biol Chem 280:14114-14121). To study whether the VHHs from the different families bound different epitopes, epitope binning was performed using a tandem binding approach in BLI. One VHH from each family was allowed to bind to mouse FRα on the biosensor, followed by binding of the second VHH ^{∘}Table 4).
(§3) Competition between VHHs from different complementarity determining region ^{∘}CDR) 3 families was assessed in a tandem binding assay using biolayer interferometry ^{∘}BLI). Streptavidin biosensors were loaded with biotinylated mouse FRα ^{∘}Acro Biosystems, Cat.nr. FO1-M82E9), followed by binding of anti-FRα VHHs ^{∘}VHH in first association). The biosensors were then transferred to a solution containing a second VHH mixed 1:1 with the first VHH ^{∘}VHH in second association). Using the FortéBio Data Analysis Software the absolute additional binding signal for the second association on top of the first association was calculated. The data were normalized per VHH in first association using the following formula: ^{∘}signal-self)/^{∘}maximum-self) with self being the value of the VHH in first association in combination with the same VHH in second association.

[4] = molecular target: T2, mouse folate receptor alpha (mFRα), …; test: BLI tandem binning on mouse FRα; competitor (1st association) 3MFR60
Excerpt: as §2, §3

[5] = molecular target: T3, human FOLR1/2 chimera 4 (human, UniProt P15328 25-234); test: flow cytometry on transiently transfected HEK293T cells, mouse anti-His then anti-mouse-PE (B575-A)
T3 construct: Region of amino acids 140-150 of hFOLR1 replaced by hFOLR2
Procedure: Chimera 1 SEQ ID No. 67) and 7 ^{∘}Ch7; SEQ ID No. 73) also contain an additional residue change at a separate location. […] HEK293T cells were transfected with hFOLR1, hFOLR2, one of the hFOLR1/2 chimeric constructs ^{∘}FIG. 2B) or single residue mutants ^{∘}FIG. 2C). Binding of VHHs 2HFO19, 2HFO42, 3MFR60, and a mouse anti-FOLR1 monoclonal antibody ^{∘}mAb) was detected using a mouse anti-His tag antibody for the VHHs followed by an anti-mouse-phycoerythrin antibody. All VHHs were tested at a concentration of 200 nM and untransfected cells were used as a negative control. The colors used for the VHHs represent the different CDR3 families; blue: family 1, green: family 3, grey: family 10.
To identify the exact region in which the VHHs bind to FRα, epitope mapping experiments were performed. Since the VHHs are able to bind human FRα, but not FRβ, we generated seven human FOLR1/2 chimeric constructs where regions of human FOLR1 were replaced by the corresponding human FOLR2 ^{∘}FRβ) regions ^{∘}FIG. 2A): chimera 1 SEQ ID No. 67), chimera 2 ^{∘}SEQ ID No. 68), chimera 3 ^{∘}SEQ ID No. 69), chimera 4 ^{∘}SEQ ID No. 70), chimera 5 ^{∘}SEQ ID No. 71), chimera 6 ^{∘}SEQ ID No. 72) and chimera 7 ^{∘}SEQ ID No. 73). Three additional chimera 1 constructs were made: chimera 1a ^{∘}replacing fragment 31-40; SEQ ID No. 74), chimera 1b ^{∘}replacing fragment 41-50; SEQ ID No. 75) and chimera 1c ^{∘}replacing fragment 51-64; SEQ ID NO. 76). The constructs were transiently transfected into HEK293T cells and dose-dependent binding of the VHHs to the wild-types FRα and FRβ ^{∘}WTs) or the chimeric constructs was assessed via flow cytometry via detection of the tag ^{∘}FIG. 2B). […] Different anti-FRα VHHs were able to bind to cell-expressed FRα-FRβ chimeras to a similar level as WT FRα, with the exception of chimera 4 ^{∘}SEQ ID No. 70) where the binding was completely abolished for all VHHs.

[6] = molecular target: T4, human folate receptor alpha expressed on cells (transfected HEK293T, HeLa, MCF7, MDA-MB-231) (human, UniProt P15328 25-234); test: flow cytometry on HEK293T cells overexpressing human FOLR1, His tag detection, PE MFI, non-linear fit
T4 construct: HEK293T transiently transfected with human FOLR1; also called native human FRα; cell-expressed human FOLR1
Procedure: Data were normalized and technical replicates were plotted as mean±SD. Data were fitted by non-linear regression and the half-maximal effective concentration ^{∘}EC50) was calculated using GraphPad Prism 9 software. ^{∘}FIG. 1C and FIG. 1D) Binding affinity determination of anti-FOLR1 VHHs for native FOLR1. Mouse ^{∘}FIG. 1C) or human FOLR1 FIG. 1D) was overexpressed on HEK293T cells and binding of the anti-FOLR1 VHHs was assessed using flow cytometry. The mean fluorescence intensity ^{∘}MFI) of the phycoerythrin signal was plotted for each VHH concentration. Data were fitted by non-linear regression using GraphPad Prism 9 software. ^{∘}FIG. 1E) Determination of the competition of representative family members with folic acid ^{∘}FA) using ELISA. Mouse FOLR1 was coated on the plate and was pre-incubated with or without 100 μM FA before adding the VHHs. Data were fitted by non-linear regression using GraphPad Prism 9 software.

T3 sequence (P15328 other isoform, or with tags, fused parts or gaps mutant limits assumed): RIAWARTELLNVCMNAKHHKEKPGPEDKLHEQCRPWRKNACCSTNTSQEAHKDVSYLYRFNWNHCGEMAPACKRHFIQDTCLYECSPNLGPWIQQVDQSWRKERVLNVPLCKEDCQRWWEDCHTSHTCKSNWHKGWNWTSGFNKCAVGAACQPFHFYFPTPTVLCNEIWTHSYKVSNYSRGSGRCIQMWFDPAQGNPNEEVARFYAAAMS
T2 sequence (P35846 25-232 limits assumed): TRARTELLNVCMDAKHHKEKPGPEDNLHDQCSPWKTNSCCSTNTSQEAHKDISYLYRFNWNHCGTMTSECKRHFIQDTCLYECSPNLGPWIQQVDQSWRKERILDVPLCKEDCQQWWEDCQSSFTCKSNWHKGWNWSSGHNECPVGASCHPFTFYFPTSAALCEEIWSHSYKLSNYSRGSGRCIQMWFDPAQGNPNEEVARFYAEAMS
T1 sequence (P15328 25-233 limits assumed): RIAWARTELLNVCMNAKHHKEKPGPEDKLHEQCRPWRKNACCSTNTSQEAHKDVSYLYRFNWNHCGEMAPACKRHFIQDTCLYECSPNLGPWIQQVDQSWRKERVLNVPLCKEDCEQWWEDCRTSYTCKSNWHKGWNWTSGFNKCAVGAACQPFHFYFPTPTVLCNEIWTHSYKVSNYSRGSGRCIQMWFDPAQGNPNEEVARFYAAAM
T4 sequence (P15328 25-234 limits assumed): as the sequence (P15328 other isoform, or with tags, fused parts or gaps mutant limits assumed) above, with Q116E, R117Q, H123R, H126Y counted along it

koff [1]: 0.013 s⁻¹
koff [2]: 0.00279 s⁻¹
normalized additional binding in 2nd association [3]: 0%
normalized additional binding in 2nd association [4]: -7%
binding result [5]: no binding (tested: 200 nM)
EC50 [6]: 4.5 nM
B1: VHH 2HFO19 (family 1) (VHH)
VHH: QVQLQESGGGLVQPGGSLRVSCAASGFPFSTVYMSWVRQAPGKGLEWVSGINNDGGVIDYADSVKGRFTISRDNAKNTLYLQLNSLKPEDTALYFCARGRSFVATLSSSLRGQGTQVTVSS
notes: also called Nb19

koff [1]: 0.0266 s⁻¹
koff [2]: 0.00881 s⁻¹
normalized additional binding in 2nd association [3]: 1%
normalized additional binding in 2nd association [4]: -2%
binding result [5]: no binding (tested: 200 nM)
EC50 [6]: 26.4 nM
B2: VHH 2HFO42 (family 3) (VHH)
VHH: QVQLQESGGGLVQAGGSLRLSCAASGSGFSGMIMGWYRQVPGKQRELVATVTSHGTTNYADSVKGRFTISRDNAKNTVLLQMNSLKPEDTAVYYCNAHFPGIYWGKGTQVTVSS
notes: also called 2HF042; Nb42

koff [1]: 0.0449 s⁻¹
koff [2]: 0.00287 s⁻¹
normalized additional binding in 2nd association [3]: 6%
normalized additional binding in 2nd association [4]: 0%
binding result [5]: no binding (tested: 200 nM)
EC50 [6]: 10.1 nM
B3: VHH 3MFR60 (family 10) (VHH)
VHH: QVQLQESGGGLVQAGGSLRVSCAASGIIFSMNGMGWFRQAPGKQRELVASITSGGSTKYADSVKGRFTISRDNAKNTVYLQMNSLKPEDTAVYYCNIQFGSRWSTYWGQGTQVTVSS
